Key:
[1] = target: T1, purified recombinant full-length RBEL1A (UniProt Q3YEC7-1 1-729, purification (1): glycosylated (larger molecular mass); purification (2): unglycosylated or less glycosylated); experiment: cross-linking; purified p53 (315-360) incubated with purified RBEL1A or BSA (1:1 or 2:1 molar ratio) 1 hour at 4 C, then glutaraldehyde 5 minutes at 4 C; SDS-PAGE, anti-p53 (FL-393) blot; conditions: both partners purified
T1 construct: RBEL1A, Ras superfamily GTPase, full length; also called recombinant RBEL1A; RBEL1A (1); source: purified recombinant protein
T1 sequence (looked up): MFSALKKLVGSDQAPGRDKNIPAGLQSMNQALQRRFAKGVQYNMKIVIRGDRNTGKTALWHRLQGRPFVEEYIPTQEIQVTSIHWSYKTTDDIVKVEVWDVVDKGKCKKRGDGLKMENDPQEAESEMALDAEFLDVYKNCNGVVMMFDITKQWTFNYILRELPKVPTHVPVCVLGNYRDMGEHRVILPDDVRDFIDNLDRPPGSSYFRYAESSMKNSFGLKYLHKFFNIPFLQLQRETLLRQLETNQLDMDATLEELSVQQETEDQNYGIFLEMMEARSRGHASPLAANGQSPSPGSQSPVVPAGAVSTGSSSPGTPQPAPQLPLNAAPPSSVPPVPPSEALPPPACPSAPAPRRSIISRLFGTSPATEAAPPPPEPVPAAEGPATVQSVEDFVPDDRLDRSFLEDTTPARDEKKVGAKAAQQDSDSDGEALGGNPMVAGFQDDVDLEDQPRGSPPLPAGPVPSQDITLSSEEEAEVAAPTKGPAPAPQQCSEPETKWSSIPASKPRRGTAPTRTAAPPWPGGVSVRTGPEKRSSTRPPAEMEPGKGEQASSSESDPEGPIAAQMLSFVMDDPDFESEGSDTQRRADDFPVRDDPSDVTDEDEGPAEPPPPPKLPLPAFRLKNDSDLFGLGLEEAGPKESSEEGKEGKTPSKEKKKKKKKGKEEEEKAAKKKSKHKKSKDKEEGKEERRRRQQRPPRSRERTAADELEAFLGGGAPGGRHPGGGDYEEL

[2] = target: the molecule itself; experiment: as above

B1: purified recombinant p53 tetramerization domain (residues 315-360) (domain or fragment, UniProt P04637 315-360, looked up)
chain: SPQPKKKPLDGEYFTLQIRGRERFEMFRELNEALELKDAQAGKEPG
notes: p53 tumor suppressor, residues 315-360 (tetramerization domain); also called p53-Oligo-D; recombinant p53 (315-360); source: purified recombinant polypeptide
binding result [1]: binds
stoichiometry N [2]: 4
